Molecular target: T1, mouse serum albumin (mouse, UniProt P07724 25-608)
T1 construct: also called Mouse albumin
Assay: SPR Biacore 3000; mouse albumin against human/rhesus albumin as reference

T1 sequence (P07724 25-608 limits assumed): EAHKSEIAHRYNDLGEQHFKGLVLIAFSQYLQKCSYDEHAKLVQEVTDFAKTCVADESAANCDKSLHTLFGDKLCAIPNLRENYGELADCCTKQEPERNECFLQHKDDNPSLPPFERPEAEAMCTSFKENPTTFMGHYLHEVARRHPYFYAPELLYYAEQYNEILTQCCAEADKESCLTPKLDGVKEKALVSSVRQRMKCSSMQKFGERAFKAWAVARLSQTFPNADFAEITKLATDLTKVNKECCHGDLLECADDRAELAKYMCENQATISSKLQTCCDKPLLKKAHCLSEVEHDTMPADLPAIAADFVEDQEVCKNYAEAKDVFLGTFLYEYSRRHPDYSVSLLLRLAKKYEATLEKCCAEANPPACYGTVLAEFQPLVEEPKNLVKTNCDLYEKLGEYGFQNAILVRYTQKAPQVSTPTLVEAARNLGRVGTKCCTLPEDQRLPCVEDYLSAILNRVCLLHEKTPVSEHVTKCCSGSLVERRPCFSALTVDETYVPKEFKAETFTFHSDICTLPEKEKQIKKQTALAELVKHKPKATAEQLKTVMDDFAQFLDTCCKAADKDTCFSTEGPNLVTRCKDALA

B1: PMP6A8 (ALB2) (VHH)
VHH: AVQLVESGGGLVQGGGSLRLACAASERIFDLNLMGWYRQGPGNERELVATCITVGDSTNYADSVKGRFTISMDYTKQTVYLHMNSLRPEDTGLYYCKIRRTWHSELWGQGTQVTVSS
- factor of difference in affinity for human/rhesus versus mouse serum albumin: 400 fold

Source: patent US20100113339A1 (Ablynx, published 2010)
